Measured values from patent US8058228B2, “Leptin peptide antagonists” (Boston Biomedical Research Institute, priority 2004, dated 2011).

Target: T1, OB-R (Homo sapiens, UniProt P48357)
T1 construct: After confirming via Western that the primary EEC and ESC and endometrial cell lines utilized herein had OB-R; endogenous in cells; host or cells: primary human EEC and ESC; Ishikawa (ECACC 9832301) and HES cell lines
T1 sequence (P48357 22-1165): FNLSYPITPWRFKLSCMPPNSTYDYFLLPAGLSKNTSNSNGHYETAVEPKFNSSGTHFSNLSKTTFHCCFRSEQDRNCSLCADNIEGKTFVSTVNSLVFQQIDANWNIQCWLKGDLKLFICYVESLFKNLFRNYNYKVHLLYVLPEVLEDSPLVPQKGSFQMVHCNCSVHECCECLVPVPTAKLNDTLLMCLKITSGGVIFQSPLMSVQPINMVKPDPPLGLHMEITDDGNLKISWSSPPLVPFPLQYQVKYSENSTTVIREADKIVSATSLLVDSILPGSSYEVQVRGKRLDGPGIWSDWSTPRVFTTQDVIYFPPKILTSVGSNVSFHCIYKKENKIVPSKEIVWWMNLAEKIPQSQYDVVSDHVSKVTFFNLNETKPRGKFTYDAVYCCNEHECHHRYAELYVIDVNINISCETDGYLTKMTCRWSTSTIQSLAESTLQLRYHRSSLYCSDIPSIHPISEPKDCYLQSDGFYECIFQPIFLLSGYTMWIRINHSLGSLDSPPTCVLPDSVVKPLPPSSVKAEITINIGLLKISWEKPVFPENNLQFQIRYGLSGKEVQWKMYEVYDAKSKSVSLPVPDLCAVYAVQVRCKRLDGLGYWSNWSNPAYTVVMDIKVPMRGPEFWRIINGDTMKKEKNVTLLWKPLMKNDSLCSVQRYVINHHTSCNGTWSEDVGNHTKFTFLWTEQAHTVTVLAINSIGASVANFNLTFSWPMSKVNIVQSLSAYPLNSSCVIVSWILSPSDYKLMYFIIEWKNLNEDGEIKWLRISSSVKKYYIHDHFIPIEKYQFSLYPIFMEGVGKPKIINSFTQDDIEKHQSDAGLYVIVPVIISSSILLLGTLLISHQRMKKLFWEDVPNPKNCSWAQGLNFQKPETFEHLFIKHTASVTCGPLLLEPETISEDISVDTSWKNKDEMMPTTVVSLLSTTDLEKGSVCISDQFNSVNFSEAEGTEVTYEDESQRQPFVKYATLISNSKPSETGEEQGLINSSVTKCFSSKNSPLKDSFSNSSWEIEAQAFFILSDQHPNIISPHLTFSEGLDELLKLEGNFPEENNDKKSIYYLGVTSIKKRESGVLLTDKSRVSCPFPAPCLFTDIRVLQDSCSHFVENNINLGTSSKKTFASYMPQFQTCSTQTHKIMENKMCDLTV
Experiment: LIF-R levels in human endometrial cells (immunoprecipitation/Western blot)
Type: cell-based
Conditions: for effect on leptin-induced increase of LIF-R levels: leptin 62 nM, peptide 300 nM, 24 h; for leptin-induced expression of LIF-R: leptin 3-62 nM
Description: Primary human endometrial cells (ESC and EEC) were cultured for 5-9 days in DMEM-F12 medium containing 5% fetal bovine serum (FBS), 5 μg/ml insulin, 1% amphopthericin B, 100 μg/ml streptomycin and 100 U/ml penicillin until they were 80% confluent. Two types of endometrial epithelial cell lines, HES (originally derived from a benign proliferative endometrium) and Ishikawa (human endometrial epithelial adenocarcinoma, ECACC 9832301, Wiltshire, England) were cultured under the same conditions described above. The cells were washed twice with 100 mM phosphate saline buffer (PBS), pH 7.2 and cultured for additional 2 days in the same medium but without FBS (basal medium). Cells were washed as described before and cultured in basal medium containing leptin (0, 3, 10 or 62 nM) or IL-1β (0.6, 3 and 10 nM).
The anti-OB-R antibody (10 and 20 μg/ml) and LPA-2, a specific inhibitor of OB-R (3, 120, 300 nM or 30 μM) were used to assess whether leptin-induced effects were regulated primarily by the OB-R. Non-specific species-matched IgGs to the OB-R antibody and a scrambled version of LPA-2 (LPA-2Sc) served as negative controls (Gonzalez and Leavis, Endocrine 21: 185-195 (2003)). Inhibitors of IL-1R were used (monoclonal antibody anti-IL-1R tl and IL-1Ra) to assess whether leptin activated IL-1 induced signaling pathways or just activated similar components responsible for LIF/LIF-R expression. Treatment with the cytokine, inhibitor or the two combined was implemented for 5, 15, 30 and 60 min, and 24 and 48 h. The cells were prepared for Western blot analysis. The conditioned media was collected, lyophilized and stored at −80° C. until analysis for LIF, IL-1β and IL-1Ra by ELISA could be performed. Duplicate wells were run for each treatment and the experiments repeated at least three times with different cell preparations.
Endometrial cells were washed with ice-cold PBS and lysed by homogenization on ice with lysis buffer A [[…] Tris, pH 7.4, containing 137 nM NaCl, 2 mM EDTA, 10% glycerol, 50 mM β-glycerophosphate, 1% Nonidet P-40 and a mixture of proteases and phosphatase inhibitors composed of 100 μM antipain, 0.1 mg/ml trypsin inhibitor, protease inhibitor cocktail 1:50 (Sigma), 50 nM NaF, 2 mM phenyl-methylsulfonyl fluoride, and 2 mM sodium orthovanadate]. Cellular lysates were centrifuged at 2400 g at 4° C. for 10 min. For nuclear lysates the cells were scraped from the culture plates and homogenized with lysis buffer B (10 nM Tris, pH 7.4, 0.25 M sucrose, 0.1 mM EDTA containing the same mixture of protease and phosphatase inhibitors as buffer A). Protein concentrations were determined using the Bradford protein assay (BioRad Laboratories Inc., Hercules, Calif.).
30 μg of protein from nuclear or cellular lysates were incubated in ependorf tubes containing 0.5 μg of primary antibodies (anti-LIF-R, OB-R, STAT3 and p-STAT3 diluted in buffer A) for 2 h at 4° C. under constant stirring. The immuno-complexes were incubated with 20 μl of Protein G-Agarose (Amersham Pharmacia Biotech) diluted 1:1 with buffer A for a 2 additional hours under constant stirring. The beads were centrifuged for 1 min at 1000 g and washed with buffer A containing 0.5 M NaCl followed by a final wash with buffer A.
Cellular lysates and their immunoprecipitates containing 10-30 μg of protein plus Laemmli buffer (1:1) were incubated at 95° C. for 5 min. Electrophoresis was performed at 220 V for 5 min followed by 130 V for 45 min (BioRad, electrophoresis apparatus) on 7.5% (for STAT3, p-STAT3, LIF-R and IL-1R tl) and 10% (for OB-R) SDS-PAGE gels. Nuclear lysates were also used to detect p-STAT3. Electroblotting onto 0.2 μm nitrocellulose membranes was performed at 22 V overnight at 4° C. in 48 nM Tris-39 nM glycine buffer containing 0.037% SDS and 20% methanol. […]

effect on leptin-induced increase of LIF-R levels (Ishikawa cells) | leptin-induced expression of LIF-R (HES cells) | leptin-induced expression of LIF-R (Ishikawa cells) | leptin-induced expression of LIF-R (primary EEC) | leptin-induced expression of LIF-R (primary ESC) | Substance
reduced the leptin-induced increase |  |  |  |  | SRNVIQISNDLENLRDLLHVLAFSKS [LPA-2, 26 amino acid peptide, residues 70-95 of helix III of the human leptin molecule; leptin peptide antagonist]
had no effect on LIF-R levels |  |  |  |  | VAEVLNRSDLIQRISFSLDLNNSKLH [LPA-2Sc, scrambled version of LPA-2, negative control, reference compound]
 | 1.3-2 fold | 1.5-3 fold | 1.7-8 fold | 1.4-3.2 fold | leptin: human recombinant leptin (R&D Systems), OB-R ligand used as stimulus
